Assay results reported in patent US20230090114A1, “METHODS FOR PROMOTING WEIGHT LOSS” (89BIO LTD., priority 2020, published 2023).

How the values were obtained:
[1] = Body composition (minispec Analyzer, TD-NMR); format: in vivo, CD-1 mice
Procedure: For body composition analyses, a minispec Analyzer (LF90II, Bruker, Germany) was used. The LF90II provides an accurate measure of the whole-body lean mass, fat mass and free fluid mass in living and vigil animals.
Body composition was measured using a minispec Analyzer (LF90II, Bruker, Germany) one (1) day before treatment start on habituation day 7 (H7) and on treatment day 13 (T13) and treatment day 25 (T25) of Treatment days. Briefly, each mouse was placed in a red clear plastic tube sealed by a plunger. Then, the tube was inserted into the minispec Analyzer for measurement of body composition (˜ 2 min/measurement). Once the measurement completed, the mouse was removed from the plastic tube and immediately replaced into its cage. The tube and the plunger were washed and dried between each mouse. As a reminder, the Minispec analyser allows fast and precise measurements of fat tissue (g) (adipose tissue), lean tissue (g) (mainly muscles) and free fluid content (g). It should be noted that each measurement was performed just prior to a METABOpack™ session in order to normalize the respiratory exchanges-related parameters of each mouse by its lean mass (see METABOpack™ session section).
General Methods: Naive CD-1 mice were treated subcutaneously (SC) for 4 weeks at ambient temperature with BIO89-100 at doses of 0, 0.3, 1.0 and 3.0 mg/kg (3qW×4 weeks) or with liraglutide at 0.2 mg/kg (BID×4 W; SC). BW and FC were measured daily throughout the treatment period. To investigate the impact of BIO89-100 on energy expenditure, the respiratory exchanges (VO2 and VCO2) were recorded during 3 distinct sessions of METABOpack™, a multiparametric approach allowing an automated and simultaneous recording of FC, water intake, respiratory exchanges and spontaneous activity. Meal pattern analysis was conducted on the high-resolution recordings of FC. The body composition (fat, lean and fluid masses) was analyzed 3 times during the study by the mean of Time-Domain Nuclear Magnetic Resonance (TD-NMR).

[2] = Food intake and meal pattern (daily and METABOpack sessions); format: in vivo, CD-1 mice
From the text: During the METABOpack™ sessions, animals were housed singly in the Physiocage System (Panlab/Harvard apparatus), which was composed of: • 8 physiocages (LE1301) • 8 Air tight lids for mouse (LE1303) • 8 grid floors for mouse (LE1317) • 8 Feeding bottles for mouse (LE1306) • 2 Air supply and switching units for up to 4 home cages each (LE4004FL) • 1 O2/CO2 analyzer (LE405) • 1 acquisition software suite, METABOLISM (V3.0).
From T1 to T28, vehicle and 89BIO100 (at the 3 different doses) were administrated by subcutaneous (SC) injection three times a week, while the treatment with liraglutide was administrated by subcutaneous route, twice a day, every day. It was important to notice that the first dosing was done just before the […] (at 9:00 AM) and the second dosing was done 8 hours after the first one (at 5:00 PM). Throughout the treatment period, FI and BW were daily measured.
In the present project, a METABOpack™ session was consisted of a 12-hour period of acclimation followed by a 48-hour period of recording of the respiratory exchanges, FI, water intake (WI) and locomotor activity of each animal.
Following this acclimation period, the parameters cited above were automatically and simultaneously recorded for 48 hours, except for body weight that was measured manually every day.
The METABOpack™ sessions were conducted at the start (T1-2), the middle (T14-15) and the end (T26-27) of the treatment period.
Meal pattern analysis was performed on high-resolution recordings of food intake obtained during the METABOpack™ sessions. The Physiocage system allowed recording food intake with an accuracy of 1 measure per second and a precision of 0.02 g. The physiocages were equipped with a system allowing to precisely collect the spillage of the animals, by the mean of a platform located under the food dispenser. This platform and the spillages it contains, were permanently weighted by the system and the values added to the total weight of the food dispenser. With this system, the progressive decrease in the food dispenser net weight only reflected the food consumption of the animals. The analysis was performed by plotting data every minute. Each weight variation of the feeding container (transition from one stable value to another) was considered as a “bout”, with each bout separated from each other bout by an “inter-bout interval”. A meal consisted of at least one bout, with each meal separated from each other meal by a “post-meal interval”. For the purpose of this study, a meal was defined as any feeding episode causing a change in food weight of 0.02 g and separated by at least 5 min from any subsequent episode. Based on this criterion, the following parameters were calculated for each experimental group: […]

[3] = BIO89-100-treated CD-1 mice, overall
[4] = T13, three doses, vs Liraglutide
[5] = T1, WD and NP, three doses, vs Liraglutide
[6] = T2, WD, three doses, vs Liraglutide
[7] = T2, WD, three doses, vs vehicle
[8] = first meal on T14, 3 mg/kg, vs 1 mg/kg
[9] = first meal on T14, 3 mg/kg, vs vehicle

B1: Mutant FGF21-GalNAc-SA-PEG-20 kDa (conjugate)
chain: MHPIPDSSPLLQFGGQVRQRYLYTDDAQQTEAHLEIREDGTVGGAADQSPESLLQLKALKPGVIQILGVKTSRFLCQRPDGALYGSLHFDPEACSFRELLLEDGYNVYQSEAHGLPLHLPGNKSPHRDPAPRGPARFLPLPGLPPALPEPPGILAPQPPDVGSSDPLSMVGPTQGASPSYAS
[1]; [3]
  fat mass: marked decrease in fat mass
  lean masses and body fluid: without affecting
[1]; T13, 3 mg/kg, vs 0.3 mg/kg
  fat mass (g): significantly decreased
  fluid mass (g): significantly decreased
[1]; T13, 3 mg/kg, vs 0.3 and 1 mg/kg
  lean mass (g): reduction in lean mass
[1]; T13, 3 mg/kg, vs vehicle
  fluid mass (g): significantly decreased
  lean mass (g): significantly decreased
[1]; T13, 1 and 3 mg/kg, vs vehicle
  fat mass (g): reduction in fat mass
[1]; [4]
  fat mass (g): No significant difference
  fluid mass (g): No significant difference
  lean mass (g): No significant difference
[1]; T25, 1 and 3 mg/kg, vs vehicle
  fat mass (g): reduction in fat mass
[1]; T25, three doses, vs Liraglutide
  fat mass (g): No significant difference
[1]; T25 minus H7, 1 and 3 mg/kg, vs vehicle and Liraglutide
  delta fat mass (g): lower
[2]; BIO89-100-treated mice
  mean meal size: no change
[2]; BIO89-100-treated mice, related to increased FC
  mean meal number: increase in mean meal number
[2]; T1, 0.3 mg/kg, vs vehicle, at 5 h, 6 h, 15-24 h
  cumulative food intake: increased
[2]; T1, 1 mg/kg, vs vehicle, at 1 h, 3 h, 18-24 h
  cumulative food intake: increased
[2]; T1, 3 mg/kg, vs vehicle, 10-12 h and 14-17 h
  cumulative food intake: increased
[2]; T1, DP, 0.3 mg/kg, vs Liraglutide
  mean meal size: increased
[2]; T1, DP, 3 mg/kg, vs 0.3 and 1 mg/kg
  mean meal size: decreased
[2]; T1, DP, 3 mg/kg, vs vehicle
  mean meal size: reduced
[2]; T1, DP, between groups
  mean food intake: no significant difference
[2]; T1, NP and WD, between the three 89BIO-100 groups
  mean food intake: No significant difference
[2]; T1, NP and WD, whatever the dose, vs Liraglutide
  mean food intake: increase in mean food intake
[2]; T1, NP, 3 mg/kg, vs vehicle
  mean food intake: higher
[2]; [5]
  mean meal number: increased
  mean satiety ratio: decreased
[2]; T1, WD, 0.3 and 1 mg/kg, vs vehicle
  mean food intake: increased
[2]; T1, between the three 89BIO-100 groups
  cumulative food intake: no significant difference
[2]; T1, three doses, vs Liraglutide, 5-24 h
  cumulative food intake: increase in cumulative food intake
[2]; T2, 0.3 mg/kg, vs Liraglutide, at 5 h, 6 h, 10-24 h
  cumulative food intake: increased
[2]; T2, 1 mg/kg, vs Liraglutide, 4-24 h
  cumulative food intake: increased
[2]; T2, 3 mg/kg, vs 0.3 mg/kg, at 1 h and 2 h only
  cumulative food intake: slightly increased
[2]; T2, 3 mg/kg, vs Liraglutide, over 24 h except at 4 h
  cumulative food intake: increased
[2]; T2, 3 mg/kg, vs vehicle, over 24 h except at 4 h
  cumulative food intake: increased
[2]; T2, 0.3 and 1 mg/kg, vs vehicle, 13-24 h
  cumulative food intake: increase in cumulative food intake
[2]; T2, 1 vs 3 mg/kg and 0.3 vs 1 mg/kg
  cumulative food intake: no significant difference
[2]; T2, DP, between groups
  mean food intake: no significant difference
[2]; T2, NP and WD, between the three 89BIO-100 groups
  mean food intake: No significant difference
[2]; T2, NP and WD, whatever the dose, vs Liraglutide
  mean food intake: increase in mean food intake
[2]; T2, NP, 3 mg/kg, vs vehicle
  mean food intake: higher
[2]; T2, WD, 0.3 and 3 mg/kg, vs vehicle
  mean meal number: increased
[2]; [6]
  mean meal number: increased
  mean post-meal interval: decreased
  satiety ratio: decreased
[2]; [7]
  mean food intake: increased
  mean post-meal interval: shorter
[2]; T15, WD only, whatever the dose, vs Liraglutide
  mean food intake: increased
[2]; T15, WD only, whatever the dose, vs vehicle
  mean food intake: increased
[2]; T27, 3 mg/kg, vs vehicle, 0.3 and 1 mg/kg groups
  mean meal duration: significant increase in mean meal duration
[2]; first meal on T14, 0.3 mg/kg, vs vehicle
  mean post-meal interval: reduction in mean post-meal interval
[2]; first meal on T14, 1 mg/kg, vs 0.3 mg/kg
  mean satiety ratio: higher
[2]; first meal on T14, 1 mg/kg, vs Liraglutide
  mean post-meal interval: increase in mean post-meal interval
[2]; [8]
  mean post-meal interval: reduction
  mean satiety ratio: reduction
[2]; [9]
  mean post-meal interval: decrease
  mean satiety ratio: decrease
[2]; first meal on T15, 1 mg/kg, vs Liraglutide
  mean post-meal interval: increase in mean post-meal interval
[2]; first meal on T15, 3 mg/kg, vs 1 mg/kg
  mean post-meal interval: lower
[2]; first meal on T15, 3 mg/kg, vs vehicle
  mean post-meal interval: decrease in mean post-meal interval
[2]; first meal on T15, three doses, vs vehicle
  mean first meal latency: reduced
[2]; first meal on T26, 3 mg/kg, vs Liraglutide
  mean first meal latency: increase in mean first meal latency
[2]; first meal on T26, 0.3 and 1 mg/kg, vs vehicle
  mean first meal latency: increase in mean first meal latency
[2]; naive CD-1 mice, 0.3-3.0 mg/kg SC 3qW x 4 weeks, up to
  increase in FC: up to +94%
[2]; summary, significantly increased on T1, T2 and T15
  food intake: increased
